The results in this text go back to publication PMC8249747.

The data set deals with T1, QseA (YhcS, AaeR) (Escherichia coli K-12 W3110 type-A) (UniProt P67662).
T1 sequence: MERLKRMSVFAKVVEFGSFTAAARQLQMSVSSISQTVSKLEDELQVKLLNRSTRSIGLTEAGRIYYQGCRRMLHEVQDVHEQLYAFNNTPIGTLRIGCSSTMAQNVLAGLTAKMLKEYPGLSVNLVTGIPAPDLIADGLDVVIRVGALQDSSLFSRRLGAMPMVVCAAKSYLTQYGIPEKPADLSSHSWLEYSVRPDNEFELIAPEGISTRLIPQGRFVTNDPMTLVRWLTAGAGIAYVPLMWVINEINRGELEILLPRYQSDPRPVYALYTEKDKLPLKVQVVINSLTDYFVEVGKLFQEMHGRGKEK
Put plainly: EMSA. Particulars: EMSA: gel shift buffer (composition not given), 37 C 30 min, PAGE, GelRed, footprinting: 1.0 pmol FITC probe, 25 C 30 min, 5 ng …. In general terms: A gel shift assay detects complexes by their altered migration in electrophoresis.

“GCGTTTTAGTCGTTCCATTATTCACTCTGACTTAAAAGTGATTTAGATCACATAATATAGATAACAGCATAACAGTTACGCTAATATATTAAATATCAATCTACAGCAATGTTGCTCTCGCCCGGCTTTCCATGCCCTTCTCTGCGGCGACAGATGCTGAAAATAATAACGCCTGCTCTCTCTTTACAACCAAGGTCAACATGAGTCTGTTTCCCGTTAT (double strand) [aaeX/qseA spacer probe (gel shift)]”: the binding result was “binds”.
